From the supplement of paper PMC10126150
± gives the standard deviation of the averaged measurements.

Tested on: ATP
Test: switch fluorescence ratio, 500 uM ATP over buffer (Cy3 cluster intensity, sum of 5 cycles each) (fold (ratio)); higher = stronger signal-on switching upon ATP binding; sequences stand for … in TCGTCGGCAGCGTCAGATGTGTATAAGAGACAGTTTTTTTTTTTTTTTTTTTTTTTTT…TC
Conditions: aptamer strand: ATP DNA aptamer (quencher-CACCTGGGGGAGTATTGCGGAGGAAGG + anchor), 100 nM annealed; ATP concentration: 500 uM
Procedure, shortened: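 Cy3-labelled switching-strand clusters on a modified Illumina MiSeq flow-cell were annealed to 100 nM quencher-labelled ATP aptamer, imaged in selection buffer, then imaged after 15 min with 500 uM ATP at 22 °C. Five buffer/ATP cycles ran, with NaOH stripping and re-annealing between them. The fluorescence ratio is summed target-cycle over summed buffer-cycle Cy3 intensity per cluster, averaged per switch-domain sequence. Clusters outside 100-1000 RFU were excluded.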
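Note: ATP exposure 15 min at 22 °C before imaging.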

Sequence	switch fluorescence ratio
TCGTGACTGT	1.02 ± 0.065
AAGAAATGTA	1.013 ± 0.0063
TCCAATTTTT	0.986 ± 0.024
TAATTTGGGT	1 ± 0.015
ATGACGGTGG	0.94 ± 0.014
ATGTTTATTG	0.998 ± 0.018
TCAATTTCGG	0.99882 ± 0.00079
AGTGTTGGGC	1.05 ± 0.023
GGGTGATAGA	1.01 ± 0.039
CTAATTGCAA	1.05 ± 0.066
CCGGGGATCA	1.01 ± 0.024
TATGAAGAGT	1.01 ± 0.017
TTCAGGAATG	1.01 ± 0.049
GAAGTAAGCT	0.983 ± 0.026
AAAATATGTG	1.02 ± 0.062
AAGCCTTTAG	0.974 ± 0.047
CAGCGCGTGC	1.01 ± 0.051
AGAGTAGGGG	0.979 ± 0.029
CAGAACCAGG	1.24 ± 0.06
ACAATTGTCG	1.028 ± 0.01
TTGACCGACT	0.973 ± 0.043
AGGGGTTGTA	0.971 ± 0.02
GTGAGAAGAA	0.97 ± 0.01
TTATCGGGGC	1 ± 0.025
TTATTAAAGG	1.02 ± 0.071
CTCATGAAAA	1.02 ± 0.02

Sequence	switch fluorescence ratio
GGGCATGTCG	1.13 ± 0.013
ATGTTTTTGT	0.989 ± 0.042
ATTTTTGTTG	0.9883 ± 0.008
CGAGAGTGCG	0.962 ± 0.023
TTGGTGTTCA	0.996 ± 0.013
TATCGTTGGA	1.03 ± 0.018
GGGGTATTCT	1.01 ± 0.013
AGGGGGCGTG	1.03 ± 0.031
TGGTGCATGC	0.957 ± 0.019
TTGAAATGTG	1.01 ± 0.017
TTAGGTTATC	1.01 ± 0.016
TAGTTTATGT	1.012 ± 0.0056
AGATCGAGTA	0.989 ± 0.033
AGAATTATCT	1 ± 0.024
CGGGGAAATA	1.01 ± 0.027
TACATATTTT	1.05 ± 0.043
TGGCGTAGTA	1.01 ± 0.051
GACGTTAGCT	1.03 ± 0.012
AAAATAATTA	0.981 ± 0.012
TGCAGTGCGT	1.0018 ± 9.8e-05
GGTTTCTCGG	1.019 ± 0.0092
GGACGGGTTT	1 ± 0.031
AAACTTGGGT	1.04 ± 0.024
AAAGGGGAAA	1 ± 0.051
CATTCATGAT	0.9858 ± 0.0086
ATATTTCATG	1.006 ± 0.0091

Sequence	switch fluorescence ratio
TTGAGATCCA	0.9929 ± 0.0085
CACGATTACT	1.281 ± 0.0018
TTCAACTGGG	1.104 ± 0.0025
TTCGATAGTT	1.89 ± 1.2
CTATACAGTG	1.02 ± 0.011
GCTTCGGGTT	0.976 ± 0.028
GTTATTCATT	1.004 ± 0.0034
CTGAGGGGGA	1.09 ± 0.17
TCAGAGGGGC	0.9913 ± 0.0095
GGTAATGCGG	1.01 ± 0.041
GAATGGAGAA	0.992 ± 0.078
TTAAGTGCGG	1 ± 0.02
AGGCAGCTAT	1.05 ± 0.038
CATCAGTGGT	1.03 ± 0.032
CGAAAATTCA	1.02 ± 0.0077
TGGGGATTAC	0.983 ± 0.012
AGGGAAAATT	0.995 ± 0.011
ATTCTGTCGT	1 ± 0.021
GAACCACGA	1.05 ± 0.019
TACTATTATC	1.0537 ± 0.00026
GGAGTGAGGG	0.985 ± 0.05
TTTTGTTGAT	1.03 ± 0.052
ACGGGGTTCT	0.965 ± 0.032
ATTCTAACGA	1.032 ± 0.0036
TGTTTATGGG	1.01 ± 0.033
GCCTTAGTCT	0.962 ± 0.098

Sequence	switch fluorescence ratio
TGTGTCAGAC	1.01 ± 0.03
AGATAATTGG	1.007 ± 0.0061
GATGTGCAGA	0.959 ± 0.038
AAGGGTAAGT	1.005 ± 0.0023
ATGGAAGGCG	1.01 ± 0.036
TGAATTTCTG	1.029 ± 0.0094
ATAAGTGTCA	0.9926 ± 0.0067
CCGTGGGGGG	1.02 ± 0.083
TTCGCTAGTG	0.98 ± 0.033
AGCTGGGGGT	1.02 ± 0.06
CGGTTCCTAA	0.994 ± 0.016
GTCGATGGGG	0.969 ± 0.014
ACTCATTTTA	1.02 ± 0.024
TTTTGAGTAC	1.01 ± 0.042
GAAGCCCACG	1.09 ± 0.019
ACAGGGATTT	1.03 ± 0.041
TCTAGGGGAG	1.007 ± 0.0099
TTTATCTGTG	0.954 ± 0.019
TTGTGGGGCG	0.986 ± 0.068
TCATGCGGGC	1.02 ± 0.038
ATCATAATAC	1.406 ± 0.0065
AAAAGGAGGC	1.01 ± 0.011
CCTGGGTTTC	1.008 ± 0.0052
AATCTGTGAA	1 ± 0.012
AAGGAGGGAC	0.982 ± 0.011
AGGGTGGTGC	1.03 ± 0.018

Sequence	switch fluorescence ratio
GTGCTTGGGC	0.9955 ± 0.0058
ATTGGGGAAG	0.996 ± 0.049
ACGCGGAGTG	1.02 ± 0.016
ACAGGCGATC	1.09 ± 0.018
AGTTCGTTTT	0.987 ± 0.019
TATTCAATGG	1.02 ± 0.074
GGAGCGAGAG	3.37 ± 0.28
CTAATTTCGT	0.992 ± 0.014
TATCGAGTGG	0.979 ± 0.058
TGACCGATCA	1 ± 0.021
TTTTTCCACG	1.03 ± 0.018
TCTATTTGGT	0.9827 ± 0.0098
GGTCCGGCGG	0.984 ± 0.057
AGAGGAGTTG	1.03 ± 0.046
TTCGTATGTT	1.03 ± 0.05
TTGGGCTCTA	1.002 ± 0.0012
TGTATATAGG	0.955 ± 0.021
AGAAACGTAT	1.13 ± 0.013
GCATGAAGTA	0.99 ± 0.017
TACTTCATCA	1.03 ± 0.02
GTTGTTGAGG	0.999 ± 0.012
ATTTTTATAA	0.987 ± 0.025
TATCAAAGGC	1.014 ± 0.0082
TTAGTCATTC	0.99 ± 0.038
GACGTAGACA	1.042 ± 0.01
TATTCAGAGG	0.974 ± 0.02

Sequence	switch fluorescence ratio
CAAGACACGT	0.977 ± 0.032
AAGTGCAAGC	1.04 ± 0.027
GCGTTGATGT	0.981 ± 0.017
CGTTTTGAGG	0.96 ± 0.034
TAGGGTGAGC	1.02 ± 0.019
AGTGTTTTGG	0.967 ± 0.024
TTTTTGAGTG	0.976 ± 0.02
TAGTTGGGAG	0.973 ± 0.012
TTAAGGGCTT	1.01 ± 0.021
AAGAGAATGG	0.984 ± 0.052
AGGTGCGGGG	1.01 ± 0.042
AATGTTTCGG	0.977 ± 0.022
GGCGACAGAG	1.04 ± 0.051
GAAGGGGGAA	1.02 ± 0.019
TCGAGGGGTG	1.01 ± 0.039
CAGTGTTATG	0.97 ± 0.014
AGTTCACTAT	0.975 ± 0.011
GAGAAAAAGG	0.976 ± 0.013
CGTTTGAAGC	0.978 ± 0.059
GGGGGCATTA	0.999 ± 0.016
ATTTTGCCTT	1 ± 0.015
GAGGTCTGTT	0.959 ± 0.029
AGGGCTGGAT	1.06 ± 0.12
